Experimental data published in patent US20220411483A1 (Chugai, published 2022).
Substitutions are numbered along the chain they refer to.

T1: FcgRIIb (human, UniProt P31994 43-217)
T1 construct: extracellular domain; also called FcγRIIb
T1 sequence (looked up): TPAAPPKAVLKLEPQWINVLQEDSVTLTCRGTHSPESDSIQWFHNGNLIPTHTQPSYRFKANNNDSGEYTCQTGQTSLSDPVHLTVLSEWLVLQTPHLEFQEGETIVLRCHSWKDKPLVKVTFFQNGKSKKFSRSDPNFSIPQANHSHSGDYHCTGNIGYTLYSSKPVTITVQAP

T2: FcgRIIaR (human, UniProt P12318 34-217)
T2 construct: extracellular domain; also called FcγRIIa R type; FcγRIIa (R type)
T2 sequence (looked up): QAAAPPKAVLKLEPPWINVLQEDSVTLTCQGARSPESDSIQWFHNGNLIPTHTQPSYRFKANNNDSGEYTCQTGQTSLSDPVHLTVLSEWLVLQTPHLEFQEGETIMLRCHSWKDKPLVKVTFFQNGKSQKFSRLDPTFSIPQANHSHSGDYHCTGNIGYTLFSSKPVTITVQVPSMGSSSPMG

T3: human FcγRIIa R type extracellular domain with C-terminal His tag (human, UniProt P12318 34-217)
T3 construct: extracellular domain; also called FcgRIIaR
T3 sequence (looked up): T2 sequence (looked up)

T4: human FcγRIIb extracellular domain with C-terminal His tag (human, UniProt P31994 43-217)
T4 construct: extracellular domain; also called FcgRIIb
T4 sequence (looked up): T1 sequence (looked up)

T5: human FcγRIIa H type extracellular domain with C-terminal His tag (human, UniProt P12318 34-217)
T5 construct: extracellular domain; also called FcgRIIaH
T5 sequence (looked up): T2 sequence (looked up) with R134H

B1: IL6R-P782/IL6R-L (antibody, human IgG1, kappa)
heavy: QVQLQESGPGLVKPSETLSLTCAVSGHSISHDHAWSWVRQPPGEGLEWIGFISYSGITNYNPSLQGRVTISRDNSKNTLYLQMNSLRAEDTAVYYCARSLARTTAMDYWGEGTLVTVSSASTKGPSVFPLAPSSKSTSGGTAALGCLVKDYFPEPVTVSWNSGALTSGVHTFPAVLQSSGLYSLSSVVTVPSSSLGTQTYICNVNHKPSNTKVDKKVEPKSCDKTHTCPPCPAPDLLGGDSVFLFPPKPKDTLMISRTPEVTCVVVDVSHEDPEVKFNWYVDGVEVHNAKTKPREEQYNSTYRVVSVLTVLHQDWLNGKEYKCKVSNKGLPSSIEKTISKAKGQPREPQVYTLPPSRDELTKNQVSLTCLVKGFYPSDIAVEWESNGQPENNYKTTPPVLDSDGSFFLYSKLTVDKSRWQQGNVFSCSVMHEALHNHYTQKSLSLSP
light: not shown
B2: IL6R-P786/IL6R-L (antibody, human IgG1, kappa)
heavy: B1 heavy with D235E, G239D, S300A
light: not shown
B3: IL6R-P784/IL6R-L (antibody, human IgG1, kappa)
heavy: B1 heavy with G239D
light: not shown
B4: IL6R-P787/IL6R-L (antibody, human IgG1, kappa)
heavy: B1 heavy with G239D, S300A
light: not shown
B5: IL6R-P785/IL6R-L (antibody, human IgG1, kappa)
heavy: B1 heavy with S300A
light: not shown
B6: IL6R-P783/IL6R-L (antibody, human IgG1, kappa)
heavy: B1 heavy with D235E, G239D
light: not shown
B7: IL6R-P787/IL6R-L (antibody, human IgG1, kappa)
heavy: B1 heavy with G239D, S300A
light: not shown
B8: IL6R-P559/IL6R-L (antibody, human IgG1, kappa)
heavy: B1 heavy with D235E, G239D, H270E, P273G, G329A, S332A, S333P
light: not shown
B9: IL6R-P555/IL6R-L (antibody, human IgG1, kappa)
heavy: B1 heavy with D235E, G239D, H270D, P273G, G329A, S332A, S333P
light: not shown
B10: IL6R-P786/IL6R-L (antibody, human IgG1, kappa)
heavy: B1 heavy with D235E, G239D, S300A
light: not shown
B11: IL6R-P556/IL6R-L (antibody, human IgG1, kappa)
heavy: B1 heavy with G239D, H270D, P273G, G329A, S332A, S333P
light: not shown
B12: IL6R-P727/IL6R-L (antibody, human IgG1, kappa)
heavy: B1 heavy with D235E, G239Q, F243M, H270P, Y298E, G329A, S332H, S333P
light: not shown
B13: IL6R-P737/IL6R-L (antibody, human IgG1, kappa)
heavy: B1 heavy with D235E, G239Q, F243M, H270P, Y298E, S326H, G329A, S332H, S333P
light: not shown
B14: IL6R-P588/IL6R-L (antibody, human IgG1, kappa)
heavy: B1 heavy with D235E, V266I, S269A, H270E, P273G, G329A, S332A, S333P
light: not shown
B15: IL6R-P729/IL6R-L (antibody, human IgG1, kappa)
heavy: B1 heavy with D235E, L237F, G239Q, F243M, H270P, Y298E, G329A, S332A, S333P
light: not shown
B16: IL6R-P785/IL6R-L (antibody, human IgG1, kappa)
heavy: B1 heavy with S300A
light: not shown
B17: IL6R-P691/IL6R-L (antibody, human IgG1, kappa)
heavy: B1 heavy with D235E, L237F, G239Q, F243M, Y298E, G329A, S332A, S333P
light: not shown
B18: IL6R-P562/IL6R-L (antibody, human IgG1, kappa)
heavy: B1 heavy with G239D, H270E, P273G, G329A, S332A, S333P
light: not shown
B19: IL6R-P733/IL6R-L (antibody, human IgG1, kappa)
heavy: B1 heavy with D235E, L237F, G239Q, F243M, H270P, Y298E, S326H, G329A, S332A, S333P
light: not shown

Each binder was assayed against T6, human complement C1q (human, UniProt P02745 23-245; P02746 28-253; P02747 29-245) (assay: SPR, C1q bound per antibody captured on Protein L).
T6 construct: Bought (PROSPEC or Calbiochem); also called human C1q
T6 sequence (P02745 23-245 limits assumed, chain 1 of 3): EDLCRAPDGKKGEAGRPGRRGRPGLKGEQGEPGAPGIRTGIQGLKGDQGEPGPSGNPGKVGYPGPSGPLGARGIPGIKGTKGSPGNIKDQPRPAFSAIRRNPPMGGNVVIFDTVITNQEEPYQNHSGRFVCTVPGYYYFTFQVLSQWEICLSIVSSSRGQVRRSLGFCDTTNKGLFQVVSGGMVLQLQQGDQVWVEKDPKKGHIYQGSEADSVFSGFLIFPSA
T6 sequence (P02746 28-253 limits assumed, chain 2 of 3): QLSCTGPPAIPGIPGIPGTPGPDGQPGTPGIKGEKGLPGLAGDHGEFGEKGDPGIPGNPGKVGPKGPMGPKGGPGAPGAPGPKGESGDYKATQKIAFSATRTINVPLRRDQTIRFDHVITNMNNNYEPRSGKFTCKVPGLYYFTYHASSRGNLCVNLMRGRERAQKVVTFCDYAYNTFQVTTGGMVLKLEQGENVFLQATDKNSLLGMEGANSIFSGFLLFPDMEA
T6 sequence (P02747 29-245 limits assumed, chain 3 of 3): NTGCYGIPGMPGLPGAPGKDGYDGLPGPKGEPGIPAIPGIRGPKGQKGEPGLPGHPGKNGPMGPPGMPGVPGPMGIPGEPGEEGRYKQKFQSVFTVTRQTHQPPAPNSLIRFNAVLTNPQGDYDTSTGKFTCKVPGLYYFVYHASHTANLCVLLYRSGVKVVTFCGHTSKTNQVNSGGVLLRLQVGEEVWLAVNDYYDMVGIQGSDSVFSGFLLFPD
How it was run: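 Antibodies captured on Protein L immobilized on a CM4 chip were exposed to human C1q diluted in HBS-EP+ running buffer at 25° C. C1q binding was normalized as C1q bound divided by antibody captured. The surface was regenerated with 10 mM glycine-HCl, pH 1.5.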

| Amount of C1q-binding when that for G1d is Defined as 100 [G1d=100] | Binder |
| --- | --- |
| 1.3 | B1 |
| 12.9 | B2 |
| 24.2 | B3 |
| 24 | B4 |
| 1.3 | B5 |
| 13.3 | B6 |

The binders below were run against T1, FcgRIIb (assay: SPR, amount bound per captured antibody).

| Relative FcgRIIb-binding Activity [IL6R-G1d/IL6R-L=100] | Binder |
| --- | --- |
| 95.1 | B1 |
| 62.4 | B2 |
| 118 | B3 |
| 84 | B4 |
| 58.4 | B5 |
| 97.9 | B6 |

What follows are binders tested against T2, FcgRIIaR (assay: SPR, amount bound per captured antibody).

| Relative FcgRIIaR-binding Activity [IL6R-G1d/IL6R-L=100] | Binder |
| --- | --- |
| 14.2 | B1 |
| 11.5 | B2 |
| 28.6 | B3 |
| 14.7 | B4 |
| 9.1 | B5 |
| 20.5 | B6 |

What follows are binders tested against T7, human FcγRIa extracellular domain with C-terminal His tag (human, UniProt P12314 16-292) (assay: SPR, KD of IL6R-G1d/IL6R-L divided by KD of variant).
T7 construct: Whole entry named; also called FcgRIa
T7 sequence (P12314 16-292): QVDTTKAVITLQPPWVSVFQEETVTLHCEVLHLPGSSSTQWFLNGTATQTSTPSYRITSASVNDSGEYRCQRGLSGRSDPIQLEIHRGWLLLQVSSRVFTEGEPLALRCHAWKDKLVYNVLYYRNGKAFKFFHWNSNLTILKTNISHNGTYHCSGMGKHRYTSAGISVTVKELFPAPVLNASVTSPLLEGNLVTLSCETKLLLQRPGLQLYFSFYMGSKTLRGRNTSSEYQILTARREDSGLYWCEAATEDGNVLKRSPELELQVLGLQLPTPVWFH

| Relative FcgRIa-binding Activity | Binder |
| --- | --- |
| 0.006 | B7 |
| 0.035 | B8 |
| 0.029 | B9 |
| 0.003 | B10 |
| 0.086 | B11 |
| 0.005 | B12 |
| 0.007 | B13 |
| 0.229 | B14 |
| 0.001 | B15 |
| 0.014 | B16 |
| 0.002 | B17 |
| 0.076 | B18 |
| 0.002 | B19 |

What follows are binders tested against T8, human FcγRIIIa V type extracellular domain with C-terminal His tag (human, UniProt P08637 17-208) in the same assay as above.
T8 construct: extracellular domain; also called FcgRIIIaV
T8 sequence (P08637 17-208 F176V): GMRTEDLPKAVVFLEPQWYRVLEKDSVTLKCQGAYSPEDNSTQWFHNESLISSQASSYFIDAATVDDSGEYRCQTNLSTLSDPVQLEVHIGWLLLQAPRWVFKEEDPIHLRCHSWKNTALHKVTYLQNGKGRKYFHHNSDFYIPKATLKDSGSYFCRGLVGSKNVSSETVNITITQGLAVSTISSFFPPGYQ

| Relative FcgRIIIaV-binding Activity | Binder |
| --- | --- |
| 0.01 | B7 |
| 0.009 | B8 |
| 0.009 | B9 |
| 0.01 | B10 |
| 0.007 | B11 |
| 0.007 | B12 |
| 0.007 | B13 |
| 0.011 | B14 |
| 0.006 | B15 |
| 0.009 | B16 |
| 0.004 | B17 |
| 0.007 | B18 |
| 0.007 | B19 |

What follows are binders tested against T3, human FcγRIIa R type extracellular … in the same assay as above.

| Relative FcgRIIaR-binding Activity | Binder |
| --- | --- |
| 0.02 | B7 |
| 0.46 | B8 |
| 0.39 | B9 |
| 0.02 | B10 |
| 0.46 | B11 |
| 0.03 | B12 |
| 0.03 | B13 |
| 0.69 | B14 |
| 0.07 | B15 |
| 0.01 | B16 |
| 0.04 | B17 |
| 0.55 | B18 |
| 0.08 | B19 |

These binders were tested against T4, human FcγRIIb extracellular domain with … in the same assay as above.

| Relative FcgRIIb-binding Activity | Binder |
| --- | --- |
| 0.5 | B7 |
| 15 | B8 |
| 10 | B9 |
| 0.2 | B10 |
| 11.7 | B11 |
| 0.8 | B12 |
| 0.5 | B13 |
| 55.3 | B14 |
| 0.7 | B15 |
| 0.3 | B16 |
| 0.9 | B17 |
| 16.2 | B18 |
| 0.5 | B19 |

The binders below were run against T5, human FcγRIIa H type extracellular … in the same assay as above.

| Relative FcgRIIaH-binding Activity | Binder |
| --- | --- |
| 0.007 | B7 |
| 0.021 | B8 |
| 0.021 | B9 |
| 0.006 | B10 |
| 0.019 | B11 |
| 0.015 | B12 |
| 0.016 | B13 |
| 0.034 | B14 |
| 0.013 | B15 |
| 0.007 | B16 |
| 0.01 | B17 |
| 0.022 | B18 |
| 0.014 | B19 |

What follows are binders tested against T7, human FcγRIa extracellular domain with … (assay: SPR, antibody captured, FcgR analyte).

| Kd [nM] | Binder |
| --- | --- |
| 56 | B7 |
| 9.1 | B8 |
| 11 | B9 |
| 120 | B10 |
| 3.7 | B11 |
| 71 | B12 |
| 46 | B13 |
| 1.4 | B14 |
| 220 | B15 |
| 23 | B16 |
| 130 | B17 |
| 4.2 | B18 |
| 200 | B19 |

Each binder was assayed against T3, human FcγRIIa R type extracellular … (assay: SPR, antibody captured, FcgR analyte).

| Kd [nM] | Binder |
| --- | --- |
| 2400 | B8 |
| 2800 | B9 |
| 2400 | B11 |
| 34000 | B12 |
| 37000 | B13 |
| 1600 | B14 |
| 16000 | B15 |
| 28000 | B17 |
| 2000 | B18 |
| 13000 | B19 |

Each binder was assayed against T4, human FcγRIIb extracellular domain with … (assay: SPR, antibody captured, FcgR analyte).

| Kd [nM] | Binder |
| --- | --- |
| 4600 | B7 |
| 140 | B8 |
| 210 | B9 |
| 8500 | B10 |
| 180 | B11 |
| 2700 | B12 |
| 4300 | B13 |
| 38 | B14 |
| 3000 | B15 |
| 7900 | B16 |
| 2300 | B17 |
| 130 | B18 |
| 4500 | B19 |
